Experimental data reported in patent publication US20240132578A1.

How the values were obtained:
[1] = target: HIV-1 92UG005 envelope glycoprotein (Env), clade D pseudovirus (HIV-1); assay: cell-based or functional assay
[2] = target: HIV-1 APV13 envelope glycoprotein (Env), clade B pseudovirus (HIV-1); assay: cell-based or functional assay
[3] = target: HIV-1 Env of isolate 92RW020 (clade A) (HIV-1); assay: cell-based or functional assay
[4] = target: HIV-1 MGRM-D-001 envelope glycoprotein (Env) (HIV-1); assay: cell-based or functional assay
[5] = target: HIV-1 MGRM-D-018 envelope glycoprotein (Env) (HIV-1); assay: cell-based or functional assay
[6] = target: Endo H treated JR-FL gP120 (HIV-1 JR-FL); assay: ELISA, antigen-coated wells, mAb titrated; EC50 by nonlinear regression
[7] = target: HIV-1 envelope glycoprotein (Env) of isolate 92TH021 (HIV-1); assay: cell-based or functional assay
[8] = target: HIV-1 envelope glycoprotein (Env) of isolate MGRM-D-018 (HIV-1); assay: cell-based or functional assay
[9] = target: HIV-1 JR-CSF Env N241A (HIV-1 (isolate JR-CSF)) (UniProt P20871); assay: cell-based or functional assay
[10] = target: HIV-1 92RW020 envelope glycoprotein (Env) on virus (HIV-1, clade A, isolate 92RW020); assay: cell-based or functional assay
[11] = target: HIV-1 94UG103 envelope glycoprotein (Env) on virus (HIV-1, clade A, isolate 94UG103); assay: cell-based or functional assay
[12] = target: HIV-1 CMU02 envelope glycoprotein (Env) on virus (HIV-1, clade AE, isolate CMU02); assay: cell-based or functional assay
[13] = target: HIV-1 envelope glycoprotein (Env) of isolate MG RM-A-001 (HIV-1); assay: cell-based or functional assay
[14] = target: HIV-1 Env of pseudovirus DU422 (HIV-1); assay: cell-based or functional assay
[15] = target: HIV-1 APV17 Env (pseudovirus) (HIV-1); assay: cell-based or functional assay
[16] = target: HIV-1 MGRM-C-027 Env (pseudovirus) (HIV-1); assay: cell-based or functional assay

Sequence of 5329_C19 (PGT-136) (antibody) (VH): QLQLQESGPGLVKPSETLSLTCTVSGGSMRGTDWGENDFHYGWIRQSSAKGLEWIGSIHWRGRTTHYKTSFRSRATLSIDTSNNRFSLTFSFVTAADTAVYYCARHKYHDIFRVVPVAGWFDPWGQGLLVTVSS
Sequence of 5329_C19 (PGT-136) (antibody) (VL): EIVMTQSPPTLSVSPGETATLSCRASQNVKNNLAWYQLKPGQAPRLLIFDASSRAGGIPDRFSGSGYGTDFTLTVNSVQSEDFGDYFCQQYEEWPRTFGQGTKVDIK
Sequence of 1443_C16 (PG16) (TCN-116) (antibody) (VH): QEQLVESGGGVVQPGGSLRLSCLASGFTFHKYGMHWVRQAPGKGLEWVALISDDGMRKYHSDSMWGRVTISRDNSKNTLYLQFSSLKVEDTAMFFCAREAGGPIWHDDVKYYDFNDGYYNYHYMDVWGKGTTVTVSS
Sequence of 1443_C16 (PG16) (TCN-116) (antibody) (VL): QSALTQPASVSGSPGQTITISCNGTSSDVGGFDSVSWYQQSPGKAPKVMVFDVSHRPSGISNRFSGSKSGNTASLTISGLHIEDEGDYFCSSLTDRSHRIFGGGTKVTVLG

For 4858_P08 (PGT-123) (antibody), which IC50, pseudovirus neutralization [1] is on record?
The IC50, pseudovirus neutralization was 2.49 µg/mL.

And the IC80 (pseudovirus neutralization) [1]?
The IC80 (pseudovirus neutralization) was over 10 µg/mL.

And the IC90 (pseudovirus neutralization) [1]?
Its IC90 (pseudovirus neutralization) is over 10 µg/mL.

And the IC95 (pseudovirus neutralization) [1]?
The IC95 (pseudovirus neutralization) was over 10 µg/mL.

And the IC50, pseudovirus neutralization [2]?
Its IC50, pseudovirus neutralization is 0.222 µg/mL.

What about the IC80 (pseudovirus neutralization) [2] of the same substance?
Its IC80 (pseudovirus neutralization) is 0.879 µg/mL.

And the IC90 (pseudovirus neutralization) [2]?
The IC90 (pseudovirus neutralization) was 1.87 µg/mL.

And the IC95 (pseudovirus neutralization) [2]?
Its IC95 (pseudovirus neutralization) is 3.5 µg/mL.

1496_C09 (PG9) (TCN-109) (antibody) was tested. Which Neutralization IC80 [3] did it give?
Its Neutralization IC80 is 1.04 µg/mL.

What about the Neutralization IC90 [3] of the same substance?
Its Neutralization IC90 is 3.4 µg/mL.

What about the neutralization IC50 [3] of the same substance?
Its neutralization IC50 is 0.161 µg/mL.

With 5329_C19 (PGT-136) (antibody) as the substance, how does the Neutralization IC80 [4] read?
The Neutralization IC80 was over 10 µg/mL.

What about the Neutralization IC90 [4] of the same substance?
The Neutralization IC90 was over 10 µg/mL.

And the Neutralization IC95 [4]?
The Neutralization IC95 was over 10 µg/mL.

And the neutralization IC50 [4]?
Its neutralization IC50 is over 10 µg/mL.

What about the Neutralization IC80 [5] of the same substance?
The Neutralization IC80 was over 10 µg/mL.

And the Neutralization IC90 [5]?
The Neutralization IC90 was over 10 µg/mL.

And the Neutralization IC95 [5]?
The Neutralization IC95 was over 10 µg/mL.

And the neutralization IC50 [5]?
The neutralization IC50 was over 10 µg/mL.

How did the EC50 [6] turn out when 4838_L06 (PGT-121) (antibody) was run?
Its EC50 is over 10 µg/mL.

5141_B17 (PGT-126) (antibody) was tested. Which Neutralization IC80 [7] did it give?
Its Neutralization IC80 is 1.62 µg/mL.

And the Neutralization IC90 [7]?
Its Neutralization IC90 is 6.91 µg/mL.

What about the Neutralization IC95 [7] of the same substance?
The Neutralization IC95 was over 10 µg/mL.

And the neutralization IC50 [7]?
Its neutralization IC50 is 0.115 µg/mL.

What about the Neutralization IC80 [8] of the same substance?
The Neutralization IC80 was 0.0391 µg/mL.

And the Neutralization IC90 [8]?
The Neutralization IC90 was 0.0918 µg/mL.

What about the Neutralization IC95 [8] of the same substance?
Its Neutralization IC95 is 0.205 µg/mL.

What about the neutralization IC50 [8] of the same substance?
Its neutralization IC50 is 0.0093 µg/mL.

5343_B08 (PGT-135) (antibody) was tested. Which Fold IC50 increase relative to wild-type [9] did it give?
The Fold IC50 increase relative to wild-type was 0.1 fold.

Which results are given for 4877_D15 (PGT-122) (antibody)?
Neutralization IC80 [10]: 0.0407 µg/mL; Neutralization IC90 [10]: 0.113 µg/mL; Neutralization IC95 [10]: 0.289 µg/mL; neutralization IC50 [10]: 0.0072 µg/mL; Neutralization IC80 [11]: 6.58 µg/mL; Neutralization IC90 [11]: > 10 µg/mL; Neutralization IC95 [11]: > 10 µg/mL; neutralization IC50 [11]: 1.46 µg/mL; Neutralization IC80 [12]: > 10 µg/mL; Neutralization IC90 [12]: > 10 µg/mL; Neutralization IC95 [12]: > 10 µg/mL; neutralization IC50 [12]: > 10 µg/mL

For PGV04 (antibody), which IC50 [13] is on record?
Its IC50 is 6.78 µg/mL.

With 1443_C16 (PG16) (TCN-116) (antibody) as the substance, how does the IC50, pseudovirus neutralization (TZM-bl assay) [14] read?
Its IC50, pseudovirus neutralization (TZM-bl assay) is 0.59 µg/mL.

Which results are given for 5123_A06 (PGT-125) (antibody)?
Neutralization by PGT-125, IC50 [15]: 7.31 µg/mL; Neutralization by PGT-125, IC80 [15]: > 10 µg/mL; Neutralization by PGT-125, IC90 [15]: > 10 µg/mL; Neutralization by PGT-125, IC95 [15]: > 10 µg/mL; Neutralization by PGT-125, IC50 [16]: > 10 µg/mL; Neutralization by PGT-125, IC80 [16]: > 10 µg/mL; Neutralization by PGT-125, IC90 [16]: > 10 µg/mL; Neutralization by PGT-125, IC95 [16]: > 10 µg/mL
